Values joined by “and” are separate entries in the source; they are usually repeats but may differ in a detail not shown here. Identical values can stand only once.
Columns and labels:
[1] = target: his-labeled human IL-13 (immunogen A) (human) (UniProt P35225); experiment: FACS blocking, biotin-IL-13 on IL-13Ra2 HEK293 cells; antibody at 0.01 nM
[2] = target: cynomolgus IL-13 (purchased from sino biological) (cynomolgus) (UniProt Q0PW92); experiment: ELISA, cynomolgus IL-13; antibody at 2.67 nM
Chain of cynomolgus IL-13 (purchased from sino biological) (cynomolgus) (Q0PW92 entry or part of it): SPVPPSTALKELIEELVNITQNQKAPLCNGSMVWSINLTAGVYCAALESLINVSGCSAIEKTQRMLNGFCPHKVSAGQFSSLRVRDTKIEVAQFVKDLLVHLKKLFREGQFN

[3] = target: cynomolgus IL-13 (purchased from sino biological) (cynomolgus) (UniProt Q0PW92); experiment: ELISA, cynomolgus IL-13; antibody at 0.53 nM
[4] = target: his-labeled human IL-13R130Q variant (human) (UniProt P35225); experiment: ELISA, IL-13R130Q variant; antibody at 0.004 nM
Chain of his-labeled human IL-13R130Q variant (human) (P35225 other isoform, or with tags, fused parts or gaps mutant): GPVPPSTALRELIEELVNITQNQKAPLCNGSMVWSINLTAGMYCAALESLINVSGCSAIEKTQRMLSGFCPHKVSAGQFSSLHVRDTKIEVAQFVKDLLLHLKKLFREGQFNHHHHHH

[5] = target: his-labeled human IL-13 (immunogen A) (human) (UniProt P35225); experiment: ELISA, biotin-immunogen A; antibody at 0.11 nM
[6] = target: his-labeled human IL-13 (immunogen A) (human) (UniProt P35225); experiment: FACS blocking, biotin-IL-13 on IL-13Ra1/IL-4Ra HEK293 cells; antibody at 1.33 nM
[7] = target: his-labeled human IL-13 (immunogen A) (human) (UniProt P35225); experiment: FACS blocking, biotin-IL-13 on IL-13Ra2 HEK293 cells; antibody at 0.27 nM
[8] = target: his-labeled human IL-13 (immunogen A) (human) (UniProt P35225); experiment: ELISA, biotin-immunogen A; antibody at 0.001 nM
[9] = target: his-labeled human IL-13 (immunogen A) (human) (UniProt P35225); experiment: FACS blocking, biotin-IL-13 on IL-13Ra2 HEK293 cells; antibody at 6.67 nM
[10] = target: his-labeled human IL-13 (immunogen A) (human) (UniProt P35225); experiment: FACS blocking, biotin-IL-13 on IL-13Ra2 HEK293 cells; antibody at 0.002 nM
[11] = target: cynomolgus IL-13 (purchased from sino biological) (cynomolgus) (UniProt Q0PW92); experiment: ELISA, cynomolgus IL-13; antibody at 0.021 nM
[12] = target: cynomolgus IL-13 (purchased from sino biological) (cynomolgus) (UniProt Q0PW92); experiment: ELISA, cynomolgus IL-13; antibody at 0.004 nM
[13] = target: his-labeled human IL-13 (immunogen A) (human) (UniProt P35225); experiment: FACS blocking, biotin-IL-13 on IL-13Ra1/IL-4Ra HEK293 cells; antibody at 166.67 nM
[14] = target: his-labeled human IL-13 (immunogen A) (human) (UniProt P35225); experiment: FACS blocking, biotin-IL-13 on IL-13Ra1/IL-4Ra HEK293 cells; antibody at 6.67 nM
[15] = target: his-labeled human IL-13 (immunogen A) (human) (UniProt P35225); experiment: FACS blocking, biotin-IL-13 on IL-13Ra1/IL-4Ra HEK293 cells; antibody at 0.01 nM
[16] = target: his-labeled human IL-13R130Q variant (human) (UniProt P35225); experiment: ELISA, IL-13R130Q variant; antibody at 2.67 nM
[17] = target: his-labeled human IL-13 (immunogen A) (human) (UniProt P35225); experiment: FACS blocking, biotin-IL-13 on IL-13Ra2 HEK293 cells; antibody at 33.33 nM
[18] = target: his-labeled human IL-13 (immunogen A) (human) (UniProt P35225); experiment: FACS blocking, biotin-IL-13 on IL-13Ra2 HEK293 cells; antibody at 1.33 nM
[19] = target: his-labeled human IL-13 (immunogen A) (human) (UniProt P35225); experiment: FACS blocking, biotin-IL-13 on IL-13Ra1/IL-4Ra HEK293 cells; antibody at 33.33 nM
[20] = target: his-labeled human IL-13 (immunogen A) (human) (UniProt P35225); experiment: FACS blocking, biotin-IL-13 on IL-13Ra1/IL-4Ra HEK293 cells; antibody at 0.27 nM
[21] = target: his-labeled human IL-13 (immunogen A) (human) (UniProt P35225); experiment: FACS blocking, biotin-IL-13 on IL-13Ra1/IL-4Ra HEK293 cells; antibody at 0.05 nM
[22] = target: cynomolgus IL-13 (purchased from sino biological) (cynomolgus) (UniProt Q0PW92); experiment: ELISA, cynomolgus IL-13; antibody at 0.11 nM
[23] = target: his-labeled human IL-13 (immunogen A) (human) (UniProt P35225); experiment: FACS blocking, biotin-IL-13 on IL-13Ra1/IL-4Ra HEK293 cells; antibody at 0.002 nM
[24] = target: his-labeled human IL-13 (immunogen A) (human) (UniProt P35225); experiment: cell-based or functional assay
[25] = target: his-labeled human IL-13R130Q variant (human) (UniProt P35225); experiment: ELISA, IL-13R130Q variant; antibody at 0.11 nM
[26] = target: his-labeled human IL-13 (immunogen A) (human) (UniProt P35225); experiment: ELISA, biotin-immunogen A; antibody at 0.02 nM
[27] = target: his-labeled human IL-13 (immunogen A) (human) (UniProt P35225); experiment: FACS blocking, biotin-IL-13 on IL-13Ra2 HEK293 cells; antibody at 0.05 nM
[28] = target: his-labeled human IL-13 (immunogen A) (human) (UniProt P35225); experiment: FACS blocking, biotin-IL-13 on IL-13Ra2 HEK293 cells; antibody at 166.67 nM

mean fluorescence intensity [1]: 83.2
OD450 nm [2]: 0.06
OD450 nm [3]: 0.09
OD450 nm [4]: 0.07
OD450 nm [5]: 0.07 and 0.05
mean fluorescence intensity [6]: 37.5
mean fluorescence intensity [7]: 78.9
OD450 nm [8]: 0.05
mean fluorescence intensity [9]: 77.2
mean fluorescence intensity [10]: 79.3
OD450 nm [11]: 0.07
OD450 nm [12]: 0.07
mean fluorescence intensity [13]: 17.1
mean fluorescence intensity [14]: 27.7
mean fluorescence intensity [15]: 72.4
OD450 nm [16]: 0.06
mean fluorescence intensity [17]: 82.7
mean fluorescence intensity [18]: 80.7
mean fluorescence intensity [19]: 22.1
mean fluorescence intensity [20]: 67.9
mean fluorescence intensity [21]: 68.9
OD450 nm [22]: 0.07
mean fluorescence intensity [23]: 72
Periostin (pg/mL), MRCS cells + IL-13 5 ng/mL; control antibody at 0.0002 nM [24]: 6350 pg/mL
Periostin (pg/mL), MRCS cells + IL-13 5 ng/mL; control antibody at 0.001 nM [24]: 4760 pg/mL
Periostin (pg/mL), MRCS cells + IL-13 5 ng/mL; control antibody at 0.004 nM [24]: 4290 pg/mL
Periostin (pg/mL), MRCS cells + IL-13 5 ng/mL; control antibody at 0.021 nM [24]: 4010 pg/mL
Periostin (pg/mL), MRCS cells + IL-13 5 ng/mL; control antibody at 0.11 nM [24]: 3830 pg/mL
Periostin (pg/mL), MRCS cells + IL-13 5 ng/mL; control antibody at 0.53 nM [24]: 4920 pg/mL
Periostin (pg/mL), MRCS cells + IL-13 5 ng/mL; control antibody at 2.67 nM [24]: 5740 pg/mL
Periostin (pg/mL), MRCS cells + IL-13 5 ng/mL; control antibody at 13.3 nM [24]: 6240 pg/mL
TARC (pg/mL), A549 cells + IL-13 5 ng/mL + TNFα; control antibody at 0.001 nM [24]: 2010 pg/mL
TARC (pg/mL), A549 cells + IL-13 5 ng/mL + TNFα; control antibody at 0.004 nM [24]: 1720 pg/mL
TARC (pg/mL), A549 cells + IL-13 5 ng/mL + TNFα; control antibody at 0.021 nM [24]: 1740 pg/mL
TARC (pg/mL), A549 cells + IL-13 5 ng/mL + TNFα; control antibody at 0.11 nM [24]: 1650 pg/mL
TARC (pg/mL), A549 cells + IL-13 5 ng/mL + TNFα; control antibody at 0.5 nM [24]: 1640 pg/mL
TARC (pg/mL), A549 cells + IL-13 5 ng/mL + TNFα; control antibody at 2.7 nM [24]: 1720 pg/mL
TARC (pg/mL), A549 cells + IL-13 5 ng/mL + TNFα; control antibody at 13.3 nM [24]: 1800 pg/mL
TARC (pg/mL), A549 cells + IL-13 5 ng/mL + TNFα; control antibody at 66.7 nM [24]: 1870 pg/mL
TARC (pg/mL), A549 cells + IL-13 + TNFα; control antibody at 0.001 nM [24]: 3120 pg/mL
TARC (pg/mL), A549 cells + IL-13 + TNFα; control antibody at 0.001 nM (part 2, with hP4 4H12) [24]: 2920 pg/mL
TARC (pg/mL), A549 cells + IL-13 + TNFα; control antibody at 0.004 nM [24]: 2980 pg/mL
TARC (pg/mL), A549 cells + IL-13 + TNFα; control antibody at 0.004 nM (part 2, with hP4 4H12) [24]: 2560 pg/mL
TARC (pg/mL), A549 cells + IL-13 + TNFα; control antibody at 0.021 nM [24]: 3000 pg/mL
TARC (pg/mL), A549 cells + IL-13 + TNFα; control antibody at 0.021 nM (part 2, with hP4 4H12) [24]: 2580 pg/mL
TARC (pg/mL), A549 cells + IL-13 + TNFα; control antibody at 0.11 nM [24]: 2780 pg/mL
TARC (pg/mL), A549 cells + IL-13 + TNFα; control antibody at 0.11 nM (part 2, with hP4 4H12) [24]: 2570 pg/mL
TARC (pg/mL), A549 cells + IL-13 + TNFα; control antibody at 0.5 nM (part 2, with hP4 4H12) [24]: 2580 pg/mL
TARC (pg/mL), A549 cells + IL-13 + TNFα; control antibody at 0.53 nM [24]: 2840 pg/mL
TARC (pg/mL), A549 cells + IL-13 + TNFα; control antibody at 2.67 nM [24]: 2720 pg/mL
TARC (pg/mL), A549 cells + IL-13 + TNFα; control antibody at 2.7 nM (part 2, with hP4 4H12) [24]: 2790 pg/mL
TARC (pg/mL), A549 cells + IL-13 + TNFα; control antibody at 13.3 nM [24]: 2820 pg/mL
TARC (pg/mL), A549 cells + IL-13 + TNFα; control antibody at 13.3 nM (part 2, with hP4 4H12) [24]: 2870 pg/mL
TARC (pg/mL), A549 cells + IL-13 + TNFα; control antibody at 66.7 nM [24]: 2700 pg/mL
TARC (pg/mL), A549 cells + IL-13 + TNFα; control antibody at 66.7 nM (part 2, with hP4 4H12) [24]: 2920 pg/mL
VCAM-1 fluorescence intensity, HUVEC + IL-13 0.5 ng/mL + TNFα; control antibody at 0.0002 nM [24]: 347
VCAM-1 fluorescence intensity, HUVEC + IL-13 0.5 ng/mL + TNFα; control antibody at 0.001 nM [24]: 369
VCAM-1 fluorescence intensity, HUVEC + IL-13 0.5 ng/mL + TNFα; control antibody at 0.004 nM [24]: 373
VCAM-1 fluorescence intensity, HUVEC + IL-13 0.5 ng/mL + TNFα; control antibody at 0.021 nM [24]: 369
VCAM-1 fluorescence intensity, HUVEC + IL-13 0.5 ng/mL + TNFα; control antibody at 0.11 nM [24]: 340
VCAM-1 fluorescence intensity, HUVEC + IL-13 0.5 ng/mL + TNFα; control antibody at 0.53 nM [24]: 302
VCAM-1 fluorescence intensity, HUVEC + IL-13 0.5 ng/mL + TNFα; control antibody at 2.67 nM [24]: 354
VCAM-1 fluorescence intensity, HUVEC + IL-13 0.5 ng/mL + TNFα; control antibody at 13.3 nM [24]: 341
OD450 nm [25]: 0.06
OD450 nm [26]: 0.07
mean fluorescence intensity [27]: 81.3
mean fluorescence intensity [28]: 77
Substance: IgG control (mouse IgG) (antibody)

— US20190309059A1 (SHANGHAI PHARMAEXPLORER, published 2019)
